The supplement of paper PMC7877785
± gives the uncertainty stated by the source.

Experiment: self-splicing fitness, log relative to wild type (ln ratio); higher = more splicing; Tetrahymena group I intron in knt gene, E. coli kanamycin selection, DiMSum; sequences stand for … in CUCUCU…GGAGGGAAAAGUUAUCAGGCAUGCACCUGGUAGCUAGUCUUUAAACCAAUAGAUUGCAUCGGUUUAAAAGGCAAGACCGUCAAAUUGCGGGAAAGGGGUCAACAGCCGUUCAGUACCAAGUCUCAGGGGAAACUUUGAGAUGGCCUUGCAAAGGGUAUGGUAAUAAGCUGACGGACAUGGUCCUAACCACGCAGCCAAGUCCUAAGUCAACAGAUCUUCUGUUGAUAUGGAUGCAGUUCACAGACUAAAUGUCGGUCGGGGAAGAUGUAUUCUUCUCAUAAGAUAUAGUCGGACCUCUCCUUAAUGGGAGCUAGCGGAUGAAGUGAUGCAACACUGGAGCCGCUGGGAACUAAUUUGUAUGCGAAAGUAUAUUGAUUAGUUUUGGAGUACUCGUGGUCG
In short: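 The eight P1ex-region nucleotides of an intron in the knt kanamycin-resistance gene on pET-22b(+) were all randomised and the library put into E. coli BL21(DE3). Six replicate transformations were grown overnight at 37°C or 30°C on LB agar with or without 25 μg/mL kanamycin, together with 100 μg/mL carbenicillin, 50 μM IPTG and 0.2% rhamnose. Colonies were pooled and amplicon-sequenced on an Illumina HiSeq 2500. Fitness from DiMSum is the error-weighted combination of wild-type-normalised replicate fold changes, kanamycin over none.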

Sequence	self-splicing fitness (ln) (30 °C)	self-splicing fitness (ln) (37 °C)
AUCGAGCAAUAUUACGUUCA	-0.62 ± 0.095	-0.544 ± 0.13
AUCUAGCAAUAUUACGACGC	-0.785 ± 0.089	-0.226 ± 0.13
AUCUAGCAAUAUUACGAUCC	-1.97 ± 0.18	-0.573 ± 0.26
AUCUAGCAAUAUUACGAUGA	-1.03 ± 0.091	-0.237 ± 0.091
AUCUAGCAAUAUUACGCCAA		-0.995 ± 0.48
AUCUAGCAAUAUUACGCGGU	-2.85 ± 0.18	-2.73 ± 0.26
AUCUAGCAAUAUUACGCGUC	-3.53 ± 0.39	-1.07 ± 0.18
AUCUAGCAAUAUUACGGCAU	0.455 ± 0.096	0.24 ± 0.1
AUCUAGCAAUAUUACGGCUU	-0.0659 ± 0.1	0.305 ± 0.12
AUCUAGCAAUAUUACGGGCC	-3.15 ± 0.23	-2.18 ± 0.22
AUCUAGCAAUAUUACGGGUG	-1.93 ± 0.067	-0.57 ± 0.067
AUCUAGCAAUAUUACGGGUU	-3.51 ± 0.15	-3.09 ± 0.21
AUCUAGCAAUAUUACGUACC	-1.3 ± 0.091	-0.395 ± 0.11
AUCUAGCAAUAUUACGUACU	-0.329 ± 0.082	-0.199 ± 0.11
AUCUAGCAAUAUUACGUCGC	-3.06 ± 0.47	-1.86 ± 0.49
AUCUAGCAAUAUUACGUGCU	-2.25 ± 0.17	-1.97 ± 0.28
AUCUAGCAAUAUUACGUGUA	-2.44 ± 0.12	-1.31 ± 0.11
AUCUAGCAAUAUUACGUUCA	-1.33 ± 0.099	-0.242 ± 0.085
AUGAAGCAAUAUUACGACCA	0.00939 ± 0.06	0.489 ± 0.083

Sequence	self-splicing fitness (ln) (30 °C)	self-splicing fitness (ln) (37 °C)
AUGAAGCAAUAUUACGACGC	0.112 ± 0.13	-0.034 ± 0.17
AUGAAGCAAUAUUACGAUCA	-0.14 ± 0.081	0.405 ± 0.11
AUGAAGCAAUAUUACGCAAG	-0.379 ± 0.085	-0.121 ± 0.11
AUGAAGCAAUAUUACGCGAA	-1.15 ± 0.087	-0.0789 ± 0.093
AUGAAGCAAUAUUACGCUCC	-0.958 ± 0.32	0.251 ± 0.35
AUGAAGCAAUAUUACGCUGA	-1.2 ± 0.13	-1.24 ± 0.17
AUGAAGCAAUAUUACGCUGG	-1.42 ± 0.1	-0.718 ± 0.12
AUGAAGCAAUAUUACGCUUC	-1.79 ± 0.15	-2.99 ± 0.41
AUGAAGCAAUAUUACGGCAU	-0.0745 ± 0.047	0.444 ± 0.063
AUGAAGCAAUAUUACGGGAG	-1.71 ± 0.098	-1.16 ± 0.11
AUGAAGCAAUAUUACGGGAU	-0.638 ± 0.056	-0.499 ± 0.093
AUGAAGCAAUAUUACGGUCG	0.0254 ± 0.086	0.299 ± 0.1
AUGAAGCAAUAUUACGGUUA	-0.509 ± 0.058	0.318 ± 0.077
AUGAAGCAAUAUUACGGUUU	-1.99 ± 0.088	-0.875 ± 0.091
AUGAAGCAAUAUUACGUACA	-0.369 ± 0.083	-0.631 ± 0.089
AUGAAGCAAUAUUACGUAGU	-1.91 ± 0.062	-0.665 ± 0.092
AUGAAGCAAUAUUACGUAUG	-1.78 ± 0.082	-1.26 ± 0.098
AUGAAGCAAUAUUACGUCCU	-0.113 ± 0.093	0.0551 ± 0.11
